Measurements reported in patent US20170146518A1 (CENTRE NATIONAL DE LA RECHERCHE SCIENTIFIQUE CNRS, published 2017).
Non-standard residues stand in square brackets, D forms with d. No end group written: not given here. pGlu = O=C1CC[C@@H](C(=O)O)N1; Nle = CCCC[C@H](N)C(=O)O

Assays:
[1] = target: T1, APJ (endogenous, in patient-derived GSCs) (human, UniProt P35414 1-380); assay: radioactive binding assay in GSCs using GP130-siRNA and anti-GP130 antibodies
T1 construct: Endogenous receptor of patient-derived glioblastoma stem-like cells, tested on intact cells, in membrane preparations or in lysates; also called Apelin receptor; APLNR
T1 sequence: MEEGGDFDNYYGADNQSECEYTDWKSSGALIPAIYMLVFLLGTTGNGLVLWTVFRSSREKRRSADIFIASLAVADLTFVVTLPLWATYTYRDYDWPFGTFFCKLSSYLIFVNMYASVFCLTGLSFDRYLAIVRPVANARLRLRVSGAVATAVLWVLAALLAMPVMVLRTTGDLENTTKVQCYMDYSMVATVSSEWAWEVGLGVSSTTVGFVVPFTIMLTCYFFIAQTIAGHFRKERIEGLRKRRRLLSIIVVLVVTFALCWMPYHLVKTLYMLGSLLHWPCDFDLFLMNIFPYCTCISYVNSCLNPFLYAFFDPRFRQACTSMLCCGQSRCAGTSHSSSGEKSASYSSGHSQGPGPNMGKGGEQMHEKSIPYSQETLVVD
Description: Prior to binding experiments, 2×10⁶ GSCs were washed three times with DMEM/F12, and resuspended in binding buffer (DMEM/F12, 40 mM HEPES, 1% BSA). In order to determine the amount of nonspecific binding, 1 μM unlabeled [<Glu⁶⁵, Nle⁷⁵, Tyr⁷⁷]apelin-13 was added. Cells were pre-incubated with GP130 blocking antibody (2 μg/ml) when indicated. Cells were then incubated with 400 pM [¹²⁵I][<Glu⁶⁵,Nlc⁷⁵,Tyr⁷⁷]apelin-13 in agitation for 6 h at 4° C., and radioactivity was measured with a gamma counter (Beckman).

[2] = target: T2, HA-APJ (transfected in HEK-293T cells) (human, UniProt P35414 1-380); assay: radioligand binding, membranes of HEK-293T transfected with APJ or with APJ and GP130
T2 construct: HA-APJ construct from Dr. L. Zheng (Chun et al., 2008); also called APJ-HA; APJ-expression plasmid; not shown: HA tag
T2 sequence: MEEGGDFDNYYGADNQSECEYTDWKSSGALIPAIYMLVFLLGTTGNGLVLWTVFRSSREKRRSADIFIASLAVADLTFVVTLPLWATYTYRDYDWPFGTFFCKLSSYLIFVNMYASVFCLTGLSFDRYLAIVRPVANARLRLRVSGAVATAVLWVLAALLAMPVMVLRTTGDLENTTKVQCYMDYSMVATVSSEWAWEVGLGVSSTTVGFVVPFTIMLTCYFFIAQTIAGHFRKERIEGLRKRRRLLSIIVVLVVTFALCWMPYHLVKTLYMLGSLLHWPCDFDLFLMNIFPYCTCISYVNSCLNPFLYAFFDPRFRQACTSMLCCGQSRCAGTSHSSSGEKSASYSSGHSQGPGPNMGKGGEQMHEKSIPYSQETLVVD
Description: Homogenates were cleared by 5 min centrifugation at 3000 rpm. Then cells were resuspended in binding buffer ([…] Hepes, 5 mM MgCl2 and 1% BSA) and ultracentrifuged to obtain cell membranes. Membranes were then incubated with [125I][<Glu65,Nle75,Tyr77]apelin-13 (Perkin Elmer) in 100 μl of the binding buffer at room temperature for 90 min. In order to determine the amounts of nonspecific binding, unlabeled [<Glu65,Nle75,Tyr77] apelin-13 (Sigma) was simultaneously added After incubation, bound and free radioactivities were separated through rapid filtration using the glass-fiber filter units (GF/C, Packard Instrument Co.) of a cell harvester (Packard). Filter units were completely dried, and Microcinti O (Packard) was added to each well. The radioactivity of each well was counted with a TopCount liquid scintillation counter (Packard). The dissociation constant (Kd) and the number of binding sites (B max) were determined by the method of Scatchard.

- binding result [1]: binds
- binding result [2]: binds
Binder: [pGlu]RPRLSHKGP[Nle]PY (also: 125I label, place not given here) [[125I][<Glu65,Nle75,Tyr77]apelin-13]
